Measured values as given in patent US8461305B2, “L-fucose α1→6 specific lectin” (J-Oil Mills, Inc., priority 2008, dated 2013).

Assays:
[1] = frontal affinity chromatography (FAC), association constant to PA sugar chains without L-fucose; assay type: binding; details: 25 degrees C.
Method in brief: (§1)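 Lectin coupled via primary amines to NHS-activated sepharose in a miniature column, run in TBS (pH 7.4) at 0.125 ml/min and 25 degrees C. PA sugar chains (3.75 nM or 7.5 nM) applied in excess, with elution monitored by fluorescence (ex 310/em 380 nm). Ka calculated from front-end delay (V−Vo) versus PA rhamnose and effective ligand amount (Bt).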

[2] = frontal affinity chromatography (FAC), association constant to PA sugar chains having other L-fucose; assay type: binding; details: 25 degrees C.
Method in brief: as §1

B1: Pisum sativum agglutinin (protein)
chain: TETTSFLITKFSPDQQNLIFQGDGYTTKEKLTLTKAVKNTVGRALYSSPIHIWDRETGNVANFVTSFTFVINAPNSYNVADGFTFFIAPVDTKPQTGGGYLGVFNSAEYDKTTQTVAVEFDTFYNAAWDPSNRDRHIGIDVNSIKSVNTKSWKLQNGEEANVVIAFNAATNVLTVSLTYPNSLEEENVTSYTLSDVVSLKDVVPEWVRIGFSATTGAEYAAHEVLSWSFHSELSGTSSSKQAADA
association constant Ka ([1]; Sugar chain No. 001): <1000 M⁻¹
association constant Ka ([1]; Sugar chain No. 002): <1000 M⁻¹
association constant Ka ([1]; Sugar chain No. 003): 7800 M⁻¹
association constant Ka ([1]; Sugar chain No. 004): <1000 M⁻¹
association constant Ka ([1]; Sugar chain No. 005): 7400 M⁻¹
association constant Ka ([1]; Sugar chain No. 006): 7100 M⁻¹
association constant Ka ([1]; Sugar chain No. 007): 7800 M⁻¹
association constant Ka ([1]; Sugar chain No. 008): 10000 M⁻¹
association constant Ka ([1]; Sugar chain No. 009): 7900 M⁻¹
association constant Ka ([1]; Sugar chain No. 010): <1000 M⁻¹
association constant Ka ([1]; Sugar chain No. 011): <1000 M⁻¹
association constant Ka ([1]; Sugar chain No. 012): 17000 M⁻¹
association constant Ka ([1]; Sugar chain No. 013): <1000 M⁻¹
association constant Ka ([1]; Sugar chain No. 014): 8600 M⁻¹
association constant Ka ([1]; Sugar chain No. 101): <1000 M⁻¹
association constant Ka ([1]; Sugar chain No. 103): <1000 M⁻¹
association constant Ka ([1]; Sugar chain No. 104): <1000 M⁻¹
association constant Ka ([1]; Sugar chain No. 105): <1000 M⁻¹
association constant Ka ([1]; Sugar chain No. 107): <1000 M⁻¹
association constant Ka ([1]; Sugar chain No. 108): <1000 M⁻¹
association constant Ka ([1]; Sugar chain No. 301): <1000 M⁻¹
association constant Ka ([1]; Sugar chain No. 304): <1000 M⁻¹
association constant Ka ([1]; Sugar chain No. 305): <1000 M⁻¹
association constant Ka ([1]; Sugar chain No. 307): 2400 M⁻¹
association constant Ka ([1]; Sugar chain No. 308): <1000 M⁻¹
association constant Ka ([1]; Sugar chain No. 313): <1000 M⁻¹
association constant Ka ([1]; Sugar chain No. 314): <1000 M⁻¹
association constant Ka ([1]; Sugar chain No. 323): <1000 M⁻¹
association constant Ka ([1]; Sugar chain No. 501): <1000 M⁻¹
association constant Ka ([1]; Sugar chain No. 502): <1000 M⁻¹
association constant Ka ([1]; Sugar chain No. 503): <1000 M⁻¹
association constant Ka ([1]; Sugar chain No. 504): <1000 M⁻¹
association constant Ka ([1]; Sugar chain No. 701): <1000 M⁻¹
association constant Ka ([1]; Sugar chain No. 702): <1000 M⁻¹
association constant Ka ([1]; Sugar chain No. 703): <1000 M⁻¹
association constant Ka ([1]; Sugar chain No. 704): <1000 M⁻¹
association constant Ka ([1]; Sugar chain No. 705): <1000 M⁻¹
association constant Ka ([1]; Sugar chain No. 706): <1000 M⁻¹
association constant Ka ([1]; Sugar chain No. 707): <1000 M⁻¹
association constant Ka ([1]; Sugar chain No. 708): <1000 M⁻¹
association constant Ka ([1]; Sugar chain No. 709): <1000 M⁻¹
association constant Ka ([1]; Sugar chain No. 710): <1000 M⁻¹
association constant Ka ([1]; Sugar chain No. 711): <1000 M⁻¹
association constant Ka ([1]; Sugar chain No. 712): <1000 M⁻¹
association constant Ka ([1]; Sugar chain No. 713): <1000 M⁻¹
association constant Ka ([1]; Sugar chain No. 715): <1000 M⁻¹
association constant Ka ([1]; Sugar chain No. 716): <1000 M⁻¹
association constant Ka ([1]; Sugar chain No. 717): <1000 M⁻¹
association constant Ka ([1]; Sugar chain No. 724): <1000 M⁻¹
association constant Ka ([1]; Sugar chain No. 725): <1000 M⁻¹
association constant Ka ([1]; Sugar chain No. 728 (as listed in Table 7)): <1000 M⁻¹
association constant Ka ([1]; Sugar chain No. 732): <1000 M⁻¹
association constant Ka ([1]; Sugar chain No. 733): <1000 M⁻¹
association constant Ka ([1]; Sugar chain No. 734): <1000 M⁻¹
association constant Ka ([1]; Sugar chain No. 735): <1000 M⁻¹
association constant Ka ([1]; Sugar chain No. 736): <1000 M⁻¹
association constant Ka ([1]; Sugar chain No. 737): <1000 M⁻¹
association constant Ka ([1]; Sugar chain No. 738): <1000 M⁻¹
association constant Ka ([1]; Sugar chain No. 901): <1000 M⁻¹
association constant Ka ([1]; Sugar chain No. 902): <1000 M⁻¹
association constant Ka ([1]; Sugar chain No. 903): <1000 M⁻¹
association constant Ka ([1]; Sugar chain No. 905): <1000 M⁻¹
association constant Ka ([1]; Sugar chain No. 906): <1000 M⁻¹
association constant Ka ([1]; Sugar chain No. 907): <1000 M⁻¹
association constant Ka ([2]; Sugar chain No. 419): <1000 M⁻¹
association constant Ka ([2]; Sugar chain No. 420): <1000 M⁻¹
association constant Ka ([2]; Sugar chain No. 718): <1000 M⁻¹
association constant Ka ([2]; Sugar chain No. 719): <1000 M⁻¹
association constant Ka ([2]; Sugar chain No. 720): <1000 M⁻¹
association constant Ka ([2]; Sugar chain No. 721): <1000 M⁻¹
association constant Ka ([2]; Sugar chain No. 722): <1000 M⁻¹
association constant Ka ([2]; Sugar chain No. 723): <1000 M⁻¹
association constant Ka ([2]; Sugar chain No. 726): <1000 M⁻¹
association constant Ka ([2]; Sugar chain No. 727): <1000 M⁻¹
association constant Ka ([2]; Sugar chain No. 728 (as listed in Table 5/12)): <1000 M⁻¹
association constant Ka ([2]; Sugar chain No. 729): <1000 M⁻¹
association constant Ka ([2]; Sugar chain No. 730): <1000 M⁻¹
association constant Ka ([2]; Sugar chain No. 731): <1000 M⁻¹
association constant Ka ([2]; Sugar chain No. 739): <1000 M⁻¹
association constant Ka ([2]; Sugar chain No. 909): <1000 M⁻¹
association constant Ka ([2]; Sugar chain No. 910): <1000 M⁻¹
association constant Ka ([2]; Sugar chain No. 931): <1000 M⁻¹
association constant Ka ([2]; Sugar chain No. 932): <1000 M⁻¹
association constant Ka ([2]; Sugar chain No. 933): <1000 M⁻¹
